These results are taken from patent US20100162418A1 (Kyowa Kirin, published 2010).

Assay [1] deals with T1, MSPS, purified recombinant human Protein S obtained from FUT8 knockout CHO/DG44 cells (human, UniProt P07225 42-676, gamma-carboxylated glutamic acid (Gla) in the Gla domain; complex type N-glycoside-linked sugar chains without fucose (fucose not detected)).
T1 construct: It differs from KCPS only in glycosylation (no core fucose); also called fucose-free recombinant Protein S
T1 sequence: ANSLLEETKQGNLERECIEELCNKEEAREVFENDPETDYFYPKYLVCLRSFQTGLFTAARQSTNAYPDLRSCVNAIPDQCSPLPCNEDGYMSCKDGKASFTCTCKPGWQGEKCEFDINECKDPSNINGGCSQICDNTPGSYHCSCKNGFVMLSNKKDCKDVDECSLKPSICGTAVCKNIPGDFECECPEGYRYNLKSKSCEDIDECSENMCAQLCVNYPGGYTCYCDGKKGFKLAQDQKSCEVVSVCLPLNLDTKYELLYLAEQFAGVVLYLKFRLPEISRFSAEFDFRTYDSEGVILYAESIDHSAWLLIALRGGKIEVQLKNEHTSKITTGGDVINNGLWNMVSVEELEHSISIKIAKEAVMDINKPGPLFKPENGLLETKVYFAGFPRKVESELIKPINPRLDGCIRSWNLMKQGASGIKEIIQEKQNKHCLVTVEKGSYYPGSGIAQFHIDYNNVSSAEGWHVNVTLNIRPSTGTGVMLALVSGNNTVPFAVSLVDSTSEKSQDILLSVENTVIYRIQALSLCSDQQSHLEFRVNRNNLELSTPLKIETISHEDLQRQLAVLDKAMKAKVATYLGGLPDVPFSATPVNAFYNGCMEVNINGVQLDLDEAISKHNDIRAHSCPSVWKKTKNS
The assay can be described thus: SPR (Biacore), HMGB-1 immobilised on C1 chip, MSPS as analyte. For orientation: Surface plasmon resonance follows binding to a sensor surface in real time, without labels.

In assay [2] the target is T2, recombinant human RAGE-Fc fusion protein (manufactured by R&D Systems) (human, UniProt Q15109 24-344).
T2 construct: Bought fusion protein; also called recombinant soluble RAGE-human IgG1 Fc chimeric protein; not shown: Fc of human IgG1
Nature of the assay: SPR (Biacore), HMGB-1 immobilised on C1 chip, RAGE-Fc (50000, 5000, 500 ng/mL) as analyte. The source says:
(§1) Using an amine coupling kit (manufactured by Biacore), human plasma-derived Protein S (manufactured by Calbiochem), human plasma-derived complement C4 binding protein (C4BP; manufactured by BioMed), and human plasma-derived complement C1 inhibitor Berinert P (manufactured by CSL Behring) were respectively immobilized on flow cells of a CM5 sensor chip (manufactured by Biacore). An immobilized amount of the ligand protein on the respective flow cells was set to the range of 2400 to 3600 resonance units (hereinafter referred to as “RU”). The complement C4 binding protein and the complement C1 inhibitor are known as plasma glycoproteins having the anti-inflammatory effect. Then, a recombinant human RAGE-Fc fusion protein (manufactured by R&D Systems) diluted to given concentrations (50000, 25000, 12500, 6250, 3125, and 1562 ng/mL) using HBS-EP+buffer (manufactured by Biacore), as an analyte, was allowed to run and bind to the ligand-immobilized flow cells at a temperature of 25° C., a flow rate of 5 μL/min, association time of 140 seconds, and dissociation time of 240 seconds. The chip was regenerated by a flow of an aqueous glycine solution (pH 1.5) (manufactured by Biacore) for 60 seconds. […]

Assay [3] concerns the target T3, human plasma-derived Protein S (manufactured by Calbiochem) (human, UniProt P07225 42-676, gamma-carboxylated glutamic acid (Gla) in the N-terminal Gla domain; complex type N-glycoside-linked sugar chains (Asn458, Asn468, Asn489), partly with core alpha1,6-fucose (Fuc 0.26 per Man 3.00)).
T3 construct: Bought protein purified from human plasma; also called native Protein S; Human plasma Protein S
T3 sequence: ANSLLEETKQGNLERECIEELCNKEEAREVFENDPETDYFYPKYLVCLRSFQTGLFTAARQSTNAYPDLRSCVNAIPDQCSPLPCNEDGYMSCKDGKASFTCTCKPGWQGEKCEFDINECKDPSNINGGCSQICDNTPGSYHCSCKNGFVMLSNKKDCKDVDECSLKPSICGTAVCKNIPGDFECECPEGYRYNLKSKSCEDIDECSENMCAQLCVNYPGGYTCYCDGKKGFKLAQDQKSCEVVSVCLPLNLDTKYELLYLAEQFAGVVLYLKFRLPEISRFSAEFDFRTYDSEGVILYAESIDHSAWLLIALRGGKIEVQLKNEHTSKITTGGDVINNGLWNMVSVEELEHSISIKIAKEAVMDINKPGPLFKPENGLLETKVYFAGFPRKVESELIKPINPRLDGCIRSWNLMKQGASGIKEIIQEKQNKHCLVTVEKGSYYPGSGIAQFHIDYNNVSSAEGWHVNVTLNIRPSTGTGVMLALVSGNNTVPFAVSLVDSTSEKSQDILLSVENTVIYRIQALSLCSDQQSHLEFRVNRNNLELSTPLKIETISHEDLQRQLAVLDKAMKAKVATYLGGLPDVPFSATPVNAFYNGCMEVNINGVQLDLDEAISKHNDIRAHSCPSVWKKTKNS
The assay can be described thus: SPR (Biacore), plasma Protein S immobilised on CM5, E-selectin Fc as analyte.

In assay [4] the target is T1, MSPS, purified recombinant human …. The assay can be described thus: SPR (Biacore), S100A8/A9 immobilised on C1 chip, MSPS as analyte. Here is the method: Using an amine coupling kit (manufactured by Biacore), recombinant human HMGB-1 (manufactured by R&D Systems), recombinant human Mac-1 heterodimer (αmβ2 integrin, CD11b/CD18; manufactured by R&D Systems), and recombinant human S100A8/A9 (manufactured by R&D Systems) were respectively immobilized at 200 RU, 1200 RU, and 400 RU on flow cells of a Series S C1 sensor chip (manufactured by Biacore). The measurement was carried out in the same manner as in Example 5, except that the recombinant human RAGE-Fc fusion protein (manufactured by R&D Systems) diluted to given concentrations of 50000, 5000 or 500 ng/mL was used as an analyte.
Next, using the same sensor chip, the same binding experiment was carried out using a recombinant human RAGE-Fc fusion protein (5000 ng/mL) mixed with MSPS (final concentration of 50000 and 5000 μg/mL), as an analyte.

Assay [5] addresses T2, recombinant human RAGE-Fc fusion …. Nature of the assay: SPR (Biacore), S100A8/A9 immobilised on C1 chip, RAGE-Fc (50000, 5000, 500 ng/mL) as analyte.
Description: as §1

T2 sequence (Q15109 24-344 limits assumed): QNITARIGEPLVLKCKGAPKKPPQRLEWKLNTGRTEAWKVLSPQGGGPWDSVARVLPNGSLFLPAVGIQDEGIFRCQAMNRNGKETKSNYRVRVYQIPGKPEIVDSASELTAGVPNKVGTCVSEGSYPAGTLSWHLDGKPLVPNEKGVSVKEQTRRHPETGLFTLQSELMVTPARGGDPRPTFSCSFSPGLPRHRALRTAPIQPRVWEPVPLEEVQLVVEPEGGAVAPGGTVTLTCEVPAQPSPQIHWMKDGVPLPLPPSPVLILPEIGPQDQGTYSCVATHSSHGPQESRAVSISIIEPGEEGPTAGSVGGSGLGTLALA

B1: recombinant human HMGB-1 (manufactured by R&D Systems) (ligand, UniProt P09429 1-215, looked up)
chain: MGKGDPKKPRGKMSSYAFFVQTCREEHKKKHPDASVNFSEFSKKCSERWKTMSAKEKGKFEDMAKADKARYEREMKTYIPPKGETKKKFKDPNAPKRPPSAFFLFCSEYRPKIKGEHPGLSIGDVAKKLGEMWNNTAADDKQPYEKKAAKLKEKYEKDIAAYRAKGKPDAAKKGVVKAEKSKKKKEEEEDEEDEEDEEEEEDEEDEDEEEDDDDE
Regarding B1, the binding result in assay [1] is on record as “no binding”; in assay [2], “binds”.

B2: human E-selectin Fc fusion protein (manufactured by R&D systems) (Fc fusion, UniProt P16581 22-556, looked up)
chain: WSYNTSTEAMTYDEASAYCQQRYTHLVAIQNKEEIEYLNSILSYSPSYYWIGIRKVNNVWVWVGTQKPLTEEAKNWAPGEPNNRQKDEDCVEIYIKREKDVGMWNDERCSKKKLALCYTAACTNTSCSGHGECVETINNYTCKCDPGFSGLKCEQIVNCTALESPEHGSLVCSHPLGNFSYNSSCSISCDRGYLPSSMETMQCMSSGEWSAPIPACNVVECDAVTNPANGFVECFQNPGSFPWNTTCTFDCEEGFELMGAQSLQCTSSGNWDNEKPTCKAVTCRAVRQPQNGSVRCSHSPAGEFTFKSSCNFTCEEGFMLQGPAQVECTTQGQWTQQIPVCEAFQCTALSNPERGYMNCLPSASGSFRYGSSCEFSCEQGFVLKGSKRLQCGPTGEWDNEKPTCEAVRCDAVHQPPKGLVRCAHSPIGEFTYKSSCAFSCEEGFELHGSTQLECTSQGQWTEEVPSCQVVKCSSLAVPGKINMSCSGEPVFGTVCKFACPEGWTLNGSAARTCGATGHWSGLLPTCEAPTESNIP
notes: Fc-bearing control protein; bought; not shown: Fc, described as similar to the Fc of human IgG1 contained in the RAGE-Fc fusion protein
As for B2, the binding result in assay [3] is reported as “no binding”.

B3: recombinant human S100A8/A9 (manufactured by R&D Systems) (ligand)
chain 1: MLTELEKALNSIIDVYHKYSLIKGNFHAVYRDDLKKLLETECPQYIRKKGADVWFKELDINTDGAVNFQEFLILVIKMGVAAHKKSHEESHKE
chain 2: MTCKMSQLERNIETIINTFHQYSVKLGHPDTLNQGEFKELVRKDLQNFLKKENKNEKVIEHIMEDLDTNADKQLSFEEFIMLMARLTWASHEKMHEGDEGPGHHHKPGLGEGTP
notes: Bought
As for B3, the results for the binding result in assay [4] and in assay [5] were “no binding” and “binds”, respectively.
